# The supplement of paper PMC10724198
# ± gives the standard deviation of the averaged measurements.
# Tested on: Saccharomyces cerevisiae
# Assay: protein stability index of tFT-peptide fusion (C-terminal peptide) (PSI (0-1 scale)); higher = more stable (slower turnover)
# Settings: genetic background: wild type; temperature: 30 C
# 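Further: PSI is a weighted mean of sequencing reads over stability bins, variants kept only with over 10 reads, mCherry proximal and sfGFP distal, peptide attached via GGGS linker.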
row,Sequence,protein stability index
1,PFGDRSGLCVSV,0.653 ± 0.017
2,PFIPLSMLSPLV,0.68 ± 0.036
3,PFLEPPYPLLRS,0.704 ± 0.17
4,PFLHPSSPPSPT,0.698 ± 0.036
5,PFLLSPCSLSAS,0.665 ± 0.026
6,PFPALQHAISRE,0.699 ± 0.066
7,PFPLGPSLQTVI,0.681 ± 0.028
8,PFPPLPPPPSPC,0.71 ± 0.014
9,PFPPPPPPPRSP,0.728 ± 0.047
10,PFPPPPTPTLSP,0.755 ± 0.027
11,PFPPPRPPPAPP,0.613 ± 0.023
12,PFPPRRLLSAPP,0.671 ± 0.039
13,PFPRPVSPSPPP,0.743 ± 0.037
14,PFPSFLPLLLPS,0.702 ± 0.069
15,PFPSLLPALSSL,0.678 ± 0.044
16,PFPSPAAPPPSL,0.674 ± 0.01
17,PFPSPPSPPSPL,0.817 ± 0.11
18,PFPSTIQSYSYS,0.738 ± 0.07
19,PFRSFVFSLDPF,0.725 ± 0.049
20,PFSASSILESVI,0.719 ± 0.098
21,PFTTSSQPDSPI,0.735 ± 0.065
22,PFVAFLPPLSPP,0.702 ± 0.037
23,PFVSGFGRPGYC,0.751 ± 0.039
24,PGDPRARPRLCP,0.71 ± 0.033
25,PGLGVGATRCVH,0.734 ± 0.018
26,PGLPCRNRMPFR,0.687 ± 0.0078

row,Sequence,protein stability index
1,PGNAEQGIAVHL,0.626 ± 0.055
2,PGNYVLSDPPLM,0.715 ± 0.033
3,PGPATKAPLRTL,0.671 ± 0.018
4,PGSILFRGVGAS,0.691 ± 0.035
5,PGVAGSLSLLRR,0.722 ± 0.097
6,PGVFEITPVMLI,0.6949 ± 0.0055
7,PHAMNPNTSRVL,0.682 ± 0.008
8,PHEKDKNMGKQK,0.702 ± 0.085
9,PHLHHPPPPISA,0.603 ± 0.027
10,PHPATSPVARPP,0.678 ± 0.014
11,PHPDPDHCHAPP,0.713 ± 0.1
12,PHPHLPPARSPP,0.675 ± 0.019
13,PHPPPPHPPPPP,0.644 ± 0.027
14,PHRPRDFALTPS,0.6905 ± 0.0048
15,PHRSTRIDVDPC,0.837 ± 0.12
16,PHRSVSRLTILS,0.658 ± 0.012
17,PHSDGVRLAEGF,0.713 ± 0.077
18,PHSTTGPPPPLT,0.695 ± 0.041
19,PHSVPPLTFPTS,0.689 ± 0.037
20,PHVGSGDGVMKA,0.598 ± 0.038
21,PHYRYLHPSPPP,0.704 ± 0.0073
22,PIELTLQRPPGV,0.671 ± 0.031
23,PIGLTCPASSVL,0.692 ± 0.046
24,PILFHIPHRHVP,0.749 ± 0.25
25,PIPLPLSPPLPT,0.73 ± 0.011
26,PIPPDGGSPPSP,0.714

row,Sequence,protein stability index
1,PIPPDPPAYQGQ,0.6426 ± 0.0064
2,PIPPPPPPPSSP,0.699 ± 0.0086
3,PITKLHRHYARG,0.6972 ± 0.0015
4,PIWWSRSALLAE,0.671 ± 0.023
5,PKQMVVRRSRRP,0.695 ± 0.07
6,PKVRAGYSYEVM,0.673 ± 0.019
7,PKYKKKNNKKKT,0.709 ± 0.058
8,PLAGLWPCRSGS,0.669 ± 0.016
9,PLALRPPFSHGL,0.698 ± 0.024
10,PLAPNYPANTGT,0.69 ± 0.021
11,PLAPPTSASRFS,0.6466 ± 0.0027
12,PLAPYPPLPPPP,0.69 ± 0.027
13,PLCCHRSTGCTL,0.676 ± 0.022
14,PLCPPPPYPPRS,0.745 ± 0.043
15,PLFLSLPLSFPS,0.697 ± 0.0058
16,PLGDIRPSPRDS,0.681 ± 0.0086
17,PLILFLSLSRSV,0.613 ± 0.066
18,PLILRSLFIFPV,0.641 ± 0.037
19,PLLDPFFPLVFT,0.58 ± 0.019
20,PLLLPPVPPFCF,0.674 ± 0.12
21,PLLPPSDTCSLL,0.718 ± 0.089
22,PLLPSLPPLLAP,0.651 ± 0.05
23,PLLPSPLIPFSH,0.688 ± 0.026
24,PLLPSPPHSPTP,0.657 ± 0.045
25,PLLPSPPLPCFF,0.765 ± 0.029
26,PLLQALLPPAPP,0.632 ± 0.026

row,Sequence,protein stability index
1,PLLSPLPSHPHP,0.815 ± 0.058
2,PLPAFPRLAIQP,0.691 ± 0.021
3,PLPAISPPPTLP,0.758 ± 0.036
4,PLPAPRHNALTT,0.6137 ± 0.0045
5,PLPASFPPFPTL,0.802 ± 0.036
6,PLPCPRGHDHPA,0.688 ± 0.068
7,PLPCSSLLVPLP,0.627 ± 0.058
8,PLPLASVTPPYL,0.669 ± 0.0067
9,PLPLPLASSFPS,0.627 ± 0.059
10,PLPLPPPPHPSL,0.723 ± 0.041
11,PLPLPPPPPLPL,0.657 ± 0.041
12,PLPLPPSPPFQF,0.751 ± 0.011
13,PLPPFPPHNLRA,0.733 ± 0.082
14,PLPPHRLPYPRL,0.81 ± 0.025
15,PLPPLPPPFLPP,0.641 ± 0.1
16,PLPPPAFPPLDP,0.671 ± 0.021
17,PLPPPLLPPSSS,0.7302 ± 0.0013
18,PLPPPLPPPSPP,0.647 ± 0.033
19,PLPPPPALILFP,0.6856 ± 0.003
20,PLPPPPIPLAPP,0.708 ± 0.054
21,PLPPPPPLLPTC,0.669 ± 0.037
22,PLPPPPPPPPLP,0.767 ± 0.024
23,PLPPPPPPSFPP,0.769 ± 0.057
24,PLPPPPTLSCTQ,0.701 ± 0.11
25,PLPPPRPLPTPL,0.69 ± 0.055
26,PLPPPSASPLPP,0.539 ± 0.044

row,Sequence,protein stability index
1,PLPPPTSPPSPP,0.749 ± 0.11
2,PLPPSLRPALSP,0.7188 ± 0.00078
3,PLPPSPLPRPCP,0.761 ± 0.054
4,PLPRPPRLVFSS,0.5 ± 0.012
5,PLPRPPSPPPAP,0.68 ± 0.12
6,PLPRPVLPPLFS,0.739 ± 0.073
7,PLPSHPPRPLPP,0.67 ± 0.05
8,PLPSPPSPPPPP,0.693 ± 0.0091
9,PLPSQYANPMIL,0.664 ± 0.0051
10,PLPSSRSPSPPS,0.711 ± 0.038
11,PLPTSMNTHALV,0.683 ± 0.079
12,PLQPPHSPPFPP,0.7 ± 0.028
13,PLRFLLPLLLPF,0.582 ± 0.0087
14,PLRGPPPPPLPI,0.677 ± 0.07
15,PLSLIRFSAFQS,0.486 ± 0.036
16,PLSLPAPPPRPR,0.654 ± 0.017
17,PLSLPPPPPSLP,0.723 ± 0.022
18,PLSLPPRPFLHH,0.735 ± 0.017
19,PLSLSSPPLFLL,0.639 ± 0.0006
20,PLSPLHHCPLSP,0.666 ± 0.039
21,PLSPLPPSPGPS,0.766 ± 0.051
22,PLSPPLLPPPPP,0.688 ± 0.014
23,PLSPPLLPPTTL,0.706 ± 0.086
24,PLSPPLPRPPPL,0.649 ± 0.11
25,PLSPPPVNIPPT,0.733 ± 0.039
26,PLSPSFPPLSPP,0.78 ± 0.12

row,Sequence,protein stability index
1,PLSRVEGRVPAI,0.6663 ± 0.0039
2,PLSSPFPPSHPL,0.763 ± 0.029
3,PLSVPHQPLCPV,0.686 ± 0.028
4,PLSVPPMSSLLP,0.7202 ± 0.0068
5,PLTFARLPPPTL,0.678 ± 0.021
6,PLTSIDTDPPHI,0.723 ± 0.022
7,PLWRPLALSHVS,0.67 ± 0.012
8,PLYRPCPGSRRA,0.745 ± 0.0097
9,PMIENQQIDKTN,0.649 ± 0.0095
10,PMMTKDEFNNRM,0.702 ± 0.015
11,PMRAALIIFLVR,0.5 ± 0.1
12,PMVETKVGGIAN,0.705 ± 0.043
13,PMYKYKTSQKDL,0.6567 ± 0.0057
14,PNFSLPSLPHFP,0.747 ± 0.017
15,PNPPPPRPTPTP,0.6688 ± 0.0049
16,PNVHMRVFELFM,0.72 ± 0.054
17,PPALLRLTSSAR,0.702 ± 0.026
18,PPALPPVPPYPL,0.673 ± 0.073
19,PPAPARFPFLPA,0.6696 ± 0.001
20,PPAPPEPRIVRR,0.684 ± 0.076
21,PPAPPFPAPPPR,0.628 ± 0.028
22,PPAPPHHPPPSS,0.679 ± 0.036
23,PPAPPPLPLPLF,0.72 ± 0.0079
24,PPARPDCGIRTP,0.672 ± 0.026
25,PPASLFFPPLSP,0.756 ± 0.13
26,PPASRPPPPTFL,0.699 ± 0.047

row,Sequence,protein stability index
1,PPCPGPLPPPPP,0.6663 ± 0.0025
2,PPCPSSPHARPA,0.69824 ± 0.00052
3,PPCRRGRTHGVY,0.685 ± 0.024
4,PPDLPVPRPSFR,0.571
5,PPDPPLHPPPSS,0.733 ± 0.13
6,PPEPVRHTSGLS,0.807 ± 0.059
7,PPFLDLSLPHIC,0.589 ± 0.016
8,PPFPPPPRPADH,0.741 ± 0.023
9,PPFTPLPPSVPP,0.686 ± 0.03
10,PPFTPLSCLPPP,0.708 ± 0.038
11,PPGAPPYPSPPP,0.569 ± 0.092
12,PPGCPCPASTGS,0.6916 ± 0.004
13,PPGPGRAPVRPA,0.623 ± 0.033
14,PPGPLPTPPYPP,0.545 ± 0.035
15,PPGPPLPRPRRP,0.694 ± 0.043
16,PPGQPPARSSPV,0.706 ± 0.013
17,PPGYPLCLPLGF,0.7018 ± 0.0035
18,PPHAPLPPPLAL,0.7219 ± 0.0072
19,PPHAPPPPPHVP,0.713 ± 0.039
20,PPHLIPTLLSPP,0.721 ± 0.02
21,PPHLPPPRPKPP,0.592 ± 0.028
22,PPHQPRTPNSPP,0.68 ± 0.034
23,PPHRPPTRPRPR,0.64 ± 0.0094
24,PPHSSPPPPPPS,0.715 ± 0.028
25,PPHSTPPTGRPG,0.753 ± 0.014
26,PPIALTPRTPAP,0.747 ± 0.097

row,Sequence,protein stability index
1,PPILHPPPDIPG,0.701 ± 0.042
2,PPISVIRKPTVL,0.667 ± 0.066
3,PPLARLASPSRL,0.7006 ± 0.0036
4,PPLARPPLPAPF,0.6998 ± 0.0022
5,PPLGITHPSFPS,0.787 ± 0.025
6,PPLGMPLYHPRP,0.7426 ± 0.0021
7,PPLGPTSARALA,0.619 ± 0.014
8,PPLLDLATYSSS,0.697 ± 0.061
9,PPLLPPLPFPPP,0.74 ± 0.076
10,PPLLTPPSTLFS,0.661 ± 0.022
11,PPLPFSRSPSSL,0.69 ± 0.019
12,PPLPLPLPPPTP,0.767 ± 0.088
13,PPLPPLPLAPPY,0.6927 ± 0.005
14,PPLPPLPPLSVS,0.675 ± 0.029
15,PPLPPPPASPPP,0.589 ± 0.045
16,PPLPPPPPLLPP,0.6764 ± 0.0065
17,PPLPPPSSPLFP,0.714 ± 0.087
18,PPLPPRPTPPPR,0.711 ± 0.04
19,PPLPSPPPPSSP,0.7157 ± 0.0022
20,PPLRFLSVSSSP,0.6741 ± 0.003
